{"source": "a protein production outcome set (Wang et al. 2014)", "assay": "label from the status in PepcDB records"}
{"sequence": "THSVETPYGSVTFTVYGTPKPKRPAIFTYHDVGLNYKSCFQPLFRFGDMQEIIQNFVRVHVDAPGMEEGAPVFPLGYQYPSLDQLADMIPCILQYLNFSTIIGVGVGAGAYILSRYALNHPDTVEGLVLINIDPNAKGWMDWAAHKLTGLTSSIPDMILGHLFSQEELSGNSELIQKYRGIIQHAPNLENIELYWNSYNNRRDLNFERGGETTLKCPVMLVVGDQAPHEDAVVECNSKLDPTQTSFLKMADSGGQPQLTQPGKLTEAFKYFLQG", "values": [{"measurement": "protein production", "result": "not failed"}]}
{"sequence": "MRYGLRVEAITLWILGGLASLEAIPKEWNRELVIALAGPAVSILTGLACYAALFALPASAQVTLFVIGWLAVTNIFLAVFNMLPAFPMDGGRVLRALLARTRPYATATRIAARIGTGFAVLFAVVGVLSFSPLLLLLALFVYGAASSESRTVALAALLDGLSVDDVASPLDATIEANASVEDLVDRMFADRRTEFAVTRGGDVVGVVTVDDFRELSKAEREADTVADLMEADLPRFPAAMAAFDALVELDTARASAAFVDGPEGTRVVSRDDFSSAMEMRRLVDSPEPF", "values": [{"measurement": "protein production", "result": "failed"}]}
{"sequence": "GLIDESEQRLVDNIFEFEEKKIREIMVPRTDMVCIYESDSEEKILAILKEEGVTRYPVCRKNKDDILGFVHIRDLYNQKINENKIELEEILRDIIYISENLTIDKALERIRKEKLQLAIVVDEYGGTSGVVTIEDILEEIVGEIQ", "values": [{"measurement": "protein production", "result": "not failed"}]}
{"sequence": "MIKPTPVAGTSLDRVDGVAKVTGQARYAGEYPEVGLLHGSVVSSTIARGRVLNIDSTQAMRVPGVIAVLDHGHRPHISSYDDDYSDADAAQGAPFRPLFDDRVLYNGQPLALVVAQTLELARYAGSLIRIEYAEEAHQTDLGACQQSHAAPAETPPPRGDFAAQFARAPVQVDATYLTANEYHNPMEPHASTVLYKGDGTLEIHDKTQGTQNCQDYLHKVFGLPKANIRVRAAFVGGAFGSGLRPQYQLPLAVMAALHLQRSVRVTLTRQQMFTFGYRPRTEQRLRLGADANGQLLAIAHDALGQTSRFEDFTEHVVEWSGMLYQCDNVALSYRLASLDVYTPLDMRAPGAASGMIALECAMDELACAAQIDPLDLRRRNFAASNANEGKPYSSKELLTCYRQGAERFGWQNRNPQPRSMRHGNQLVGWGMAGGVWEAMQMKASAKARFDAQGHLTVSSATTDIGTGTYTVMTQIAADAAGARVQDVTFVLGDSSLPTAPLQGGSFTVSSVGSAVRQACQVLRTKVLEHARRMYPQVASTAREQIIFADGYLHAGSHRLALADIIASAPEGEFEVQIDAEPGARRQPFSTATHSAVFAEVHVDEDLGTIKVVRVVSAVAAGRVINPKTARSQILGGVVWGVGMALHEAALTDHRLGRIVNHNLAEYHIPVNADSGDIEVIFVEEHDDIVNELGSKGVGEIGVVGVAAAVANAVYHATGKRVREFPITLDKLLKDNSQV", "values": [{"measurement": "protein production", "result": "failed"}]}
{"sequence": "MTEIERKFLVATFPDGELHAVPLRQGYLTTPTDSIELRLRQQGTEYFMTLKSEGGLSRQEYEIQIDVTQFEMLWPATEGRRVEKTRYSGKLPDGQLFELDVFAGHLSPLMLVEVEFLSEDAAQAFIPPPWFGEEVTEDKRYKNKALALSIP", "values": [{"measurement": "protein production", "result": "not failed"}]}
{"sequence": "MKNITKLSTVALSLLLCTACAASNTSTSKTQSHHPKQTKLTDKQKEEPKNKEAADQEMHPQGAVDLTKYKAKPVKDYGKKIDVGDGKKMNIYETGQGKIPIVFIPGQAEISPRYAYKNLIERLSKKYKIYTVEPLGYGLSDIPTKPRTLENITKEIHTGLNKIGVKNFYLAAHSLGGMYSLNYAKNYPEEVRGFIGMDTSTPWMEGEQKTKYDPESAKWAMKLPDVDDKTNEQYLSIAKKINGNKSQRDEDERLGDNLGKLKNVKFPKGMPTKYFLADQSVEGIKLRQADFKGLKNWDQQHIDLSEDPKDASVEIFKGSHNIFQTQYEHMAKAIDGFIQSHQK", "values": [{"measurement": "protein production", "result": "failed"}]}
{"sequence": "MSQLNSVWVFSDNPERYAELFGGAQQWGQQVYAIVQNTEQAQAVMPYGPKCIYVLEQNDALQRTENYAESIAALLKDKHPAMLLLAATKRGKALAARLSVQLNAALVNDATAVDIVDGHICAEHRMYGGLAFAQEKINSPLAIITLAPGVQEPCTRDISHQCPTETVPYVAPRHEILCRERRAKAASSVDLSKAKRVVGVGRGLAAQDDLKMVHELAAVLNAEVGCSRPIAEGENWMERERYIGVSGVLLKSDLYLTLGISGQIQHMVGGNGAKVIVAINKDKNAPIFNYADYGLVGDIYKVVPALISQLNR", "values": [{"measurement": "protein production", "result": "failed"}]}
{"sequence": "RFNPFIHQQDVYVQIDRDGRHLSPGGTEYTLDGYNASGKKEEVTFFAGKELRKNAYLKVKAKGKYVETWEEVKFEDMPDSVQSKLK", "values": [{"measurement": "protein production", "result": "not failed"}]}
{"sequence": "MTTTPDWIMIGGDGPESYNQQSSYQRALLEATKDKMTKAISANLDLDLISNRFIVADFGCASGPNTFVAVQNIIDAVEEKYRRETGQNPADNIEFQVLFNDFSLNDFNTLFQTLPPGRRYFSAGVPGSFFERVLPKESFHIGVMSYAFHFTSKIPKGIMDRDSPLWNKDMQCTGFNPAVKKAYLDQYSIDTKILLDARAEELVPGGLMLLLGSCLRDGVKMSETPKGTVMDFIGESLSDLAKQGVTEQEKVDTFRTSIYFAEQGEIRQIIEENGKFTIEAFEDIIHAKNEFPFDPKTLAISFKAFYGAFISAHFGVEVMRKAFELVEVKAREQISRLHNSKPGMQYLIVLRKN", "values": [{"measurement": "protein production", "result": "failed"}]}
{"sequence": "MRVVHILLQVGILYGFYLVGSWIQKSFELIVPGSIIGMVLLLIALAIKAISPKWIEQGSMQLLLLMPMLFLPVTVGIMEYWHMFHGSGFWLLIIAFVSTILVFIISGWITQWLIAWKTKGIDKHDHL", "values": [{"measurement": "protein production", "result": "failed"}]}
{"sequence": "MGRSQATAESYRDSLTIFKNYLVGELGKSISTFQFSDCTKECIYNFREYLLANGSQPSTVNVRVAAIRAYLNYASDMDISVQSVALAILEHHHHHH", "values": [{"measurement": "protein production", "result": "failed"}]}
{"sequence": "KAKAAFFDIDGTLYREGLISEVFKKLIKYEIIDEEKWYKEVRPEFEKWDNRKGDYDDYLLKMTEIYVDALNGLSKSQVEFIASQVVNQKGERVYTYTRDRIKWHKERGHKIITISGSPIELVRNMAEKYGFDDYRGAEYLLDENDVYTGEVIPMWDSKSKERAVHELEAKYNIDLGESYAYGDTSGDLTMLKMVGNPVCINPTKELVKEILSDEEVKNKIRIIVERK", "values": [{"measurement": "protein production", "result": "not failed"}]}
{"sequence": "MKLNVKMLSVTLGLFTSHAFAHTVYENARIYTVNDQQPTASVLVVEQGKIIYVGGNDGAKQFKATAAELFDLEGKTVLPGFIESHAHPATVAVMQAGDFVYVDGAASLTQILNQLKDYLAAHPKANYLLAQGFNVASLGLPQGALPTAADLDTVSTSIPIVVYDSGMHAGWANSAALKIAHVDANTPDPISGKHYFERDNKGNPTGFMHESAMHNVVDAQQFNTVENVAEQLKPILNTYHSLGFTAITDVGDTFSTTTAAIARLNDQGKLKVYYQRGYFYDAAKSTEQNIASLKALREKYNRGNLSMNLYKLFMDGTIEMDSGAMFKPYPNGNIVEPFLSQKQINDNVAAALKAGFSVHVHAIGDKAQQSILDAFEASKNINPHLARVIAHNQVFEPQGVQKFAAMKDNLFLQTTPNWTVLNEKDETKTKIGSDAYNHQYLLGQVVREGVAVTFGSDYPANTFDAVNPFSQMYHAIKRGQPNAGYLPPTDAAMTLDQSLRAYTINGAKQLGISDITGSLEKGKNADFIIVDTDIGSVDLEKLKNTNVLATYFKGEKVY", "values": [{"measurement": "protein production", "result": "failed"}]}
{"sequence": "GLPAVDSEILEMPPEKADGVVEGIDVNGPKAQLMLRYPDGKREQITLPEQAKLLALVKHVQSKGYPNERFELLTNFPRRKLSHLDYDITLQEAGLCPQETVFVQERN", "values": [{"measurement": "protein production", "result": "failed"}]}
{"sequence": "MVRNMLIESVLFLAAGLFMLSYGSDWFVLGASRVAKQFNISSFVIGATIVAFGTSLPEIVTSAYAASTGSVELAVGNALGSCIANIGLVLGLSLIISTVFIKNRSVLKNGYLYIIYTIIFTAIGYNGFSFFDGIFLLFLLLVYVVYTIKSGEMDDEEHEKSITFKKAIIYLLIGLLFVILGSSFFVDGAKGLASAFGVSEKIIGFTIVAFGTSLPELSVSFAAARQKLGGIVIGNVIGSNIANMFGALAIASIIHEIPAVKFELSVNILMVLLLIAMMSKEKIKAVLNLNSTKEYLSKITKADGLILILIYLLFVLGLTGIF", "values": [{"measurement": "protein production", "result": "failed"}]}
{"sequence": "MAPTLAGPNVAGDCFPGASGCIVLPMSGSLSLHIAAFLALLPAAFTPLRQTPGRDGLFWGTLGVAIIGALVVSIVPSLRQGMWSTSFSSALWVSIAATLLLFSELCFRHQAAWRLTPVLMPYLIALGAMATIWEGAEGAPLADHAPAFWTVLHIVIAVLTYGMLTLGAVAALAGFLQERALKARRPTSLTRRLPAAAEADRLSWILLYTSEWVLGAGLLTGMAVEYLETGAILQPDHKSMLSSLAFLVIGGLILARSRWGVRGRVGARVVLLAYLLLTLAFPGVKFVSDVLL", "values": [{"measurement": "protein production", "result": "failed"}]}
